Square brackets hold non-standard residues; d marks the D form. Ends that are not written are not given here. * marks the point of attachment. Biotin = O=C1N[C@H]2[C@H](CS[C@H]2CCCCC(=O)*)N1; pS = N[C@@H](COP(=O)(O)O)C(=O)O
T1: endogenous BACH1 (full-length) of U2OS cells (Homo sapiens (Human), UniProt Q9BX63 1-1249)
T1 construct: Endogenous full-length protein in U2OS cell lysates, detected with a rabbit anti-BACH1 antibody; The phosphorylation state in the lysate was not measured; also called full-length BACH1; wild-type BACH1
T1 sequence: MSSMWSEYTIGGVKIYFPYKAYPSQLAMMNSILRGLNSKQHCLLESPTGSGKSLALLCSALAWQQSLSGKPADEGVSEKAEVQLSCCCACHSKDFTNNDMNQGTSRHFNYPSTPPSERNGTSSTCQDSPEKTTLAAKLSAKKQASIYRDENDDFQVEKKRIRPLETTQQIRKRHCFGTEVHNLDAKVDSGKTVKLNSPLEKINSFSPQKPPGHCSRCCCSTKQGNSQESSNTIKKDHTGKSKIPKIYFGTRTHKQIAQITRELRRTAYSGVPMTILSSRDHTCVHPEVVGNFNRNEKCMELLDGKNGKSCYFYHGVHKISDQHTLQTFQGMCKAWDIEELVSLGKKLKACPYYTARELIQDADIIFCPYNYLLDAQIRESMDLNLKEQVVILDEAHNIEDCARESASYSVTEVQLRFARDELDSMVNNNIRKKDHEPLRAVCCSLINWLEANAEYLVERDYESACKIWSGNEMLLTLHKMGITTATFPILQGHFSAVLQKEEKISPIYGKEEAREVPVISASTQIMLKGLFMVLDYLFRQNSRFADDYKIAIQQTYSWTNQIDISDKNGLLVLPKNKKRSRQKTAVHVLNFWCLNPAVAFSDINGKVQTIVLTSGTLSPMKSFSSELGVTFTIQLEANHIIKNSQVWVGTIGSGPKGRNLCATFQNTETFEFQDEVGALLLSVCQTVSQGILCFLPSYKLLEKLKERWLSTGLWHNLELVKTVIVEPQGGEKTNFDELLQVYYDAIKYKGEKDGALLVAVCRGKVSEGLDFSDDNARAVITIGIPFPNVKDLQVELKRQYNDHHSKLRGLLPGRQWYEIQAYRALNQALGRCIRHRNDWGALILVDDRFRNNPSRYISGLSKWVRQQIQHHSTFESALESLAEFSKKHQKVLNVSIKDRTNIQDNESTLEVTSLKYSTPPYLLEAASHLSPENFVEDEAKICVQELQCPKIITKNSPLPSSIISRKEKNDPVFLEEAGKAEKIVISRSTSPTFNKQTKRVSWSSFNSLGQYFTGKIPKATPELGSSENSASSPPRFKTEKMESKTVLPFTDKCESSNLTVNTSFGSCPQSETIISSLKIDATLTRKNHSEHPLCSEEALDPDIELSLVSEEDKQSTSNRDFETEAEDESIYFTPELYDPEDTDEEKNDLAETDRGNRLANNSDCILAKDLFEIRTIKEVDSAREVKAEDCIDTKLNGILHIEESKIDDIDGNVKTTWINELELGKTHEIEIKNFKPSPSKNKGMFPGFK

B1: myc-tagged BRCA1 tandem BRCT domain construct (residues 1313-1863) M1775R (other, not shown: small tags and cut ends)
chain: QDPFLIGSSKQMRHQSESQGVGLSDKELVSDDEERGTGLEENNQEEQSMDSNLGEAASGCESETSVSEDCSGLSSQSDILTTQQRDTMQHNLIKLQQEMAELEAVLEQHGSQPSNSYPSIISDSSALEDLRNPEQSTSEKAVLTSQKSSEYPISQNPEGLSADKFEVSADSSTSKNKEPGVERSSPSKCPSLDDRWYMHSCSGSLQNRNYPSQEELIKVVDVEEQQLEESGPHDLTETSYLPRQDLEGTPYLESGISLFSDDPESDPSEDRAPESARVGNIPSSTSALKVPQLKVAESAQSPAAAHTTDTAGYNAMEESVSREKPELTASTERVNKRMSMVVSGLTPEEFMLVYKFARKHHITLTNLITEETTHVVMKTDAEFVCERTLKYFLGIAGGKWVVSYFWVTQSIKERKMLNEHDFEVRGDVVNGRNHQGPKRARESQDRKIFRGLEICCYGPFTNRPTDQLEWMVQLCGASVVKELSSFTLGTGVHPIVVVQPDAWTEDNGFHAIGQMCEAPVVTREWVLDSVALYQCQELDTYLIPQIPHSHY
notes: also called M1775R cancer-associated mutant
B2: myc-tagged BRCA1 tandem BRCT domain construct (residues 1313-1863) P1749R (other, not shown: small tags and cut ends)
chain: QDPFLIGSSKQMRHQSESQGVGLSDKELVSDDEERGTGLEENNQEEQSMDSNLGEAASGCESETSVSEDCSGLSSQSDILTTQQRDTMQHNLIKLQQEMAELEAVLEQHGSQPSNSYPSIISDSSALEDLRNPEQSTSEKAVLTSQKSSEYPISQNPEGLSADKFEVSADSSTSKNKEPGVERSSPSKCPSLDDRWYMHSCSGSLQNRNYPSQEELIKVVDVEEQQLEESGPHDLTETSYLPRQDLEGTPYLESGISLFSDDPESDPSEDRAPESARVGNIPSSTSALKVPQLKVAESAQSPAAAHTTDTAGYNAMEESVSREKPELTASTERVNKRMSMVVSGLTPEEFMLVYKFARKHHITLTNLITEETTHVVMKTDAEFVCERTLKYFLGIAGGKWVVSYFWVTQSIKERKMLNEHDFEVRGDVVNGRNHQGRKRARESQDRKIFRGLEICCYGPFTNMPTDQLEWMVQLCGASVVKELSSFTLGTGVHPIVVVQPDAWTEDNGFHAIGQMCEAPVVTREWVLDSVALYQCQELDTYLIPQIPHSHY

Tests used:
[1] = target: T1, endogenous BACH1 (full-length) of U2OS …; assay: co-immunoprecipitation from transfected U2OS cells (anti-myc IP, anti-BACH1 blot)
[2] = target: T2, myc-tagged BRCA1 tandem BRCT domain construct (from residue 1313) Y1853X (human, UniProt P38398 1313-1852); assay: pull-down of in vitro translated 35S-labelled protein on bead-immobilized peptide
T2 construct: Stop at Tyr1853; also called Y1853X (truncates the last 11 residues)
Protocol: (§1) FIG. 3A is a schematic representation of protein-peptide contacts between a BRCA1 tandem BRCT domain and the BACH1 phosphopeptide. Hydrogen bonds, Van der Waals interactions and water molecules are denoted by dashed lines, crescents, and circles respectively. In FIG. 3B, the wild-type and mutant myc-tagged BRCA1 tandem BRCT domain constructs containing the indicated mutations were analysed for binding to a bead-immobilized optimal tandem BRCT domain-interacting phosphopeptide, YDIpSQVFPF, or its non-phosphorylated counterpart. […] In FIG. 3C, U2OS cells transfected with wild-type and mutant myc-tagged BRCA 1 tandem BRCT domain constructs were analysed for association with endogenous BACH1.
(§2) An optimal phosphopeptide for binding the BRCA1 BRCTs was determined by oriented peptide library screening as described previously. This peptide was synthesized in both its phosphorylated and non-phosphorylated form with a biotin group at the N-terminus using N-α-FMOC-protected amino acids and standard BOP/HOBt coupling chemistry. These peptides were conjugated to streptavidin coated beads (Sigma-Aldrich). […] The bead-immobilized peptides (10 μL of beads) were added to 10 μL of the in vitro translated [³⁵S]-labeled protein pool in 150 μL binding buffer (50 mM Tris-HCl (pH7.6), 150 mM NaCl, 0.5% NP-40, 1 mM EDTA, 2 mM DTT, 8 μg/mL pepstatin, 8 μg mL⁻¹ aprotinin, 8 μg mL⁻¹ leupeptin, 800 μM Na3VO4, 25 mM NaF).

[3] = target: T3, myc-tagged BRCA1 tandem BRCT domain construct (residues 1313-1863) S1655A/K1702M (human, UniProt P38398 1313-1863); assay: as above
T3 construct: also called K1702M/S1655A
Protocol: as §1, §2

[4] = target: B2; assay: as above
Protocol: as §1, §2

[5] = target: myc-tagged BRCA1 tandem BRCT domain construct (residues 1313-1863) G1738E (human, UniProt P38398 1313-1863); assay: as above
Protocol: as §1, §2

[6] = target: T4, myc-tagged BRCA1 tandem BRCT domain construct (residues 1313-1863) mutated at Ser1655 alone (human, UniProt P38398 1313-1863); assay: as above
T4 construct: also called Ser1655 mutant; S1655A
Protocol: as §1, §2

[7] = target: T5, myc-tagged BRCA1 tandem BRCT domain construct (residues 1313-1863) mutated at Lys1702 alone (human, UniProt P38398 1313-1863); assay: as above
T5 construct: also called Lys1702 mutant; K1702M
Protocol: as §1, §2

[8] = target: B1; assay: as above
Protocol: as §1, §2

binding result [1]	binding result [2]	binding result [3]	binding result [4]	binding result [5]	binding result [6]	binding result [7]	binding result [8]	Binder
no binding	–	–	–	–	–	–	–	B1
no binding	–	–	–	–	–	–	–	B2
–	no binding	no binding	no binding	no binding	no binding	no binding	no binding	Biotin-YDI[pS]QVFPF (Found by oriented peptide library screening; Conjugated to streptavidin-coated beads; also called phosphorylated biotinylated peptide) [optimal tandem BRCT domain-interacting phosphopeptide YDIpSQVFPF]
